Experimental data: paper doi:10.1101/545921 (bioRxiv, 2019)

B1: Glycolytic glyceraldehyde-3-phosphate dehydrogenase of Arabidopsis thaliana (AtGAPC1), native / reduced (enzyme, UniProt P25858 1-338, looked up)
chain: MADKKIRIGINGFGRIGRLVARVVLQRDDVELVAVNDPFITTEYMTYMFKYDSVHGQWKHNELKIKDEKTLLFGEKPVTVFGIRNPEDIPWAEAGADYVVESTGVFTDKDKAAAHLKGGAKKVVISAPSKDAPMFVVGVNEHEYKSDLDIVSNASCTTNCLAPLAKVINDRFGIVEGLMTTVHSITATQKTVDGPSMKDWRGGRAASFNIIPSSTGAAKAVGKVLPALNGKLTGMSFRVPTVDVSVVDLTVRLEKAATYDEIKKAIKEESEGKLKGILGYTEDDVVSTDFVGDNRSSIFDAKAGIALSDKFVKLVSWYDNEWGYSSRVVDLIVHMSKA
B2: H2O2-oxidized AtGAPC1 (AtGAPC1-SO2H) (enzyme, Arabidopsis thaliana, UniProt P25858 1-338, looked up)
chain: B1 chain
modifications: sulfinic acid or sulfinate (-SO2H or -SO2-) at Cys149
B3: IAM-pretreated AtGAPC1 WT (WT-IAM) (enzyme, Arabidopsis thaliana, UniProt P25858 1-338, looked up)
chain: B1 chain
modifications: Cys149 alkylated by iodoacetamide (IAM)

Biological target: the molecule itself
Experiment: dynamic light scattering

Stoichiometry N, 4:
B1
B2
B3
